The test system of data set [1] is IFNβ, IL-6, IP-10 and IFN-induced genes. Description: Innate immune stimulation in mice. The data set is classed as in vivo. As to conditions: 5 mg/kg sc. The procedure: Mice were injected sc with eGFP EpCAM-AsiCs (5 mg/kg, n=3) or ip with Poly(I:C) (5 or 50 mg/kg (n=2/dose). FIG. 8A: Serum samples, collected at baseline and 6 and 16 hr after treatment were assessed for IFNβ, IL-6 and IP-10 by multiplex immunoassay. * p<0.05. ** p<0.01, *** p<0.001, compared to baseline. FIG. 8B: mRNA expression of cytokine and IFN-induced genes, relative to gapdh was assayed by qRT-PCR in total splenocytes harvested 16 hr post treatment. ** p<0.01, compared to untreated (NT, n=3).
Mice were injected sc with eGFP EpCAM-AsiCs (5 mg/kg) or ip with Poly(I:C) (5 or 50 mg/kg). Serum samples, collected at baseline and 6 and 16 hr after treatment were stored at −80° C. before measuring IFNβ, IL-6 and IP-10 using the ProcartaPlex Multiplex Immunoassay (Affymetrix/eBioscience, San Diego, Calif.). Spleens, harvested at sacrifice 16 hr post treatment, were stored in RNAlater (Qiagen) before extracting RNA using TRIZOL (Invitrogen) with the gentleMACS Dissociator (MACS Miltenyi Biotec, San Diego, Calif.). cDNA was synthesized using Superscript III and random hexamers (Invitrogen) and PCR was performed using SsoFast EvaGreen Supermix and a Bio-Rad CFX96 Real-Time PCR System (Bio-Rad Laboratories, Hercules, Calif.) using the following primers: […]

The next data set relates to MB468-luc tumors. The experiment in a line: Tumor inhibition, EpCAM+ MB468-luc xenograft. The data set is classed as in vivo, nude mice. As to conditions: for growth of EpCAM+ MB468 tumors: 5 mg/kg sc every 3 d (72 h) for 2 wks. On the procedure: For tumor inhibition studies, MB468-luc (5×10^6) and MB231-luc-mCherry (5×10^5) cells trypsinized with Tryple Express (Invitrogen), resuspended in a 1:1 WIT-Matrigel solution and injected subcutaneously in the flank of 8-week old female Nu/J mice (Stock #002019, Jackson Laboratories). Tumors size was analyzed daily using the IVIS Spectra, after 5 days tumors were clearly visible. […] Mice were treated every 72 h for 14 days.

The test system of data set [2] is co-cultures of GFP− TNBC cells and GFP+ BPE cells. Description: Co-culture of tumor cells with GFP+ BPE cells, relative survival by flow cytometry. The format is cell-based, human. On the procedure:
To determine whether EpCAM-AsiCs specifically target EpCAM+ cells when mixed with EpCAM^dim non-transformed epithelial cells, we incubated co-cultures of GFP− TNBC cells and GFP+ BPE cells with PLK1 EpCAM-AsiCs or medium and used GFP fluorescence to measure their relative survival by flow cytometry 3 days later (FIG. 2D, 2E). […] Thus PLK1 EpCAM-AsiCs are selectively cytotoxic for EpCAM+ tumor cells when mixed with normal cells.
To understand whether EpCAM-AsiC can specifically target basal A and luminal breast cancer cells and inhibit proliferation we designed an EpCAM-AsiC targeting PLK1. PLK1 is a known trigger for […] transition. The effect of EpCAM-AsiC targeting PLK1 on cell proliferation was tested on 10 breast cancer cells representative of basal A, B and luminal cell lines. […] A correlation was seen between EpCAM expression levels and cell viability (FIG. 27B). To understand if EpCAM-AsiC will specifically target EpCAM+ cells in a mix cell population HCC1937 (EpCAM+GFP−) cell were co-cultured with BPE (EpCAM-GFP+) cells and treated with EpCAM-AsiC targeting PLK1 or untreated. […] The co-culture was repeated with other basal A cell lines (MB468 and HCC1143) similar reults were obtained. When BPE cells were grown in a co-culture with basal B cell (MB231) the ratio between BPE and MB231 cells stayed the same regardless of the EpCAM-AsiC treatment (66% BPE and 33% MB231 in untreated co-culture and 61% BPE and 38% MB231 following EpCAM-AsiC treatment) (FIG. 27C, 27D).
For orientation: Flow cytometry measures light scatter and fluorescence of single cells or particles in a stream.

A further data set concerns breast cancer cell lines. Description: Colony formation assay. As to conditions: AsiC 4 uM, paclitaxel 100 nM. The format is cell-based, human. On the procedure:
For colony formation assay, 1,000 viable cells were treated for 6 h in round bottom 96-well plates and then transferred to 10-cm plates in serum-containing medium. Medium was replaced every 3 d. After 8-14 d, cells were fixed in methanol (−20 C) and stained with crystal violet. For sphere formation assay, 1,000/ml viable cells were treated for 6 h in round bottom 96-well plates and then cultured in suspension in serum-free DMEM/F12 1:1 (Invitrogen), supplemented with EGF (20 ng/ml, BD Biosciences), B27 (1:50, Invitrogen), 0.4% bovine serum albumin (Sigma) and 4 μg/ml insulin (Sigma). Spheres were counted after 1 or 2 weeks.

In data set [3] the test system is basal-A, luminal and basal-B breast cancer cell lines. The experiment in a line: Cell proliferation/viability by CellTiter-Glo in 10 breast cancer cell lines. The format is cell-based, human. An excerpt: To explore whether EpCAM-AsiCs could be used as anti-tumor agents in breast cancer, we examined by CellTiterGlo assay the effect of AsiCs directed against PLK1, a kinase required for mitosis, on survival of 10 breast cancer cell lines that included 5 basal-A TNBCs, 2 luminal cell lines, and 3 basal-B TNBCs. […] The anti-proliferative effect strongly correlated with EpCAM expression (FIG. 2B). The reduction in viable EpCAM+ cells after knockdown was due to induction of apoptosis, assessed by annexin V-propidium iodide staining and caspase activation (data not shown). To determine whether ligation of the EpCAM aptamer contributed to the anti-proliferative effect of the EpCAM-AsiC, we compared survival of cells that were treated with the PLK1 EpCAM-AsiC with cells treated with the aptamer on its own (FIG. 2C). […] Thus the PLK1 EpCAM-AsiC asserts its specific anti-tumor effect on EpCAM+ breast cancer cells by gene knockdown.
For uptake and silencing treatment, cells were plated at low density (10,000 cells/well in 96-well plates) and treated immediately. All AsiC and siRNA treatments were performed in either OptiMEM or WIT medium. Cell viability was assessed by CellTiter-Glo (Promega) or by Trypan-Blue staining in 96-well plates.
(ATP-based viability assays read luminescence as a measure of living cells.)

[4] abbreviates: listed as EpCAM-AsiC targeting PLK1.
Where [5] appears, read: listed as EpCAM-AsiCs targeting PLK1.

“Also recorded” adds a separate entry of the source.

B1: EpCAM-AsiC: EpCAM aptamer-siRNA chimera, siRNA cargo not specified at the place; 2'-fluoropyrimidines, 3'-dTdT (nucleic acid)
sense: GCGACUGGUUACCCGGUCGUUUUGAAGAAGAUCACCCUCCUUATT
antisense: UAAGGAGGGUGAUCUUCUUCATT
modifications: DNA at T, 2'-fluoro at CU, RNA at AG, backbone not given here; further chemistry not fully specified
notes: EpCAM aptamer-siRNA chimera, siRNA cargo not specified at the place; 2'-fluoropyrimidines, 3'-dTdT
Consider B1, for which the innate immune stimulation result was “do not trigger innate immunity” in data set [1] and “does not stimulate innate immunity in mice” in data set [1] (listed as EpCAM AsiCs). The “injections until complete tumor regression” value with MB468-luc tumors (very aggressive TNBC xenograft model) is on record as 3 injections. Also, in data set [2] (BPE mixed with epithelial TNBC lines, after 3 d), the “decrease of the proportion of surviving tumor cells” value is recorded as 7 fold.

B2: PLK1 EpCAM-AsiC: EpCAM aptamer linked by U-U-U to PLK1 siRNA sense strand (SEQ ID NO: 1), annealed to antisense strand (SEQ ID NO: 2) (nucleic acid)
sense: B1 sense
antisense: UAAGGAGGGUGAUCUUCUUCATT
modifications: DNA at T, 2'-fluoro at CU, RNA at AG, backbone not given here; EpCAM aptamer fused to sense strand
As to B2, in the data set with breast cancer cell lines (setting [4]), the “colony formation, EpCAM+ basal-A and luminal lines” value was “lost the ability to form colonies; also recorded: only eliminated colony formation in luminal (MCF7) and basal A (HCC1954) cells”; the “colony formation, EpCAM− basal-B lines” value is on record as “did not effect colony formation”. In the data set with breast cancer cell lines (listed as PLK1 EpCAM-AsiCs), the “colony formation, EpCAM+ basal-A and luminal lines” value was “more strongly inhibited colony and mammosphere formation of EpCAM+ basal-A TNBCs and luminal cell lines than paclitaxel; also recorded: eliminated mammosphere and colony formation; also recorded: more strongly inhibited colony and mammosphere formation of multiple EpCAM+ basal-like TNBCs and a luminal cell line than paclitaxel”; the “colony formation, EpCAM− basal-B lines” value was “inactive against EpCAM− basal-B TNBCs”. Further, in the data set with MB468-luc tumors (5 mg/Kg every 72 h), the “time at which tumors completely disappeared in many mice” value is reported as 14 days and the “time of first tumor shrinkage” value was 6 days. The “growth of EpCAM+ MB468 tumors” value with MB468-luc tumors was “regress only after treatment with PLK1 EpCAM-AsiC”. Besides, in the data set on MB468-luc tumors (listed as PLK1-targeting AsiCs), the “growth of EpCAM+ MB468 tumors” value is reported as “rapidly completely regressed”. In the data set with MB468-luc tumors (listed as PLK1 EpCAM-AsiCs), the “growth of EpCAM+ MB468 tumors” value is on record as “caused complete tumor regression of EpCAM+ TNBC xenografts”. In data set [3] (setting [4]), the “cell proliferation/viability, basal-A and luminal (EpCAM+) lines” value was “displayed a decrease in cell viability; also recorded: decreased cell proliferation in both basal A and luminal cell lines; also recorded: suppressed cell viability in basal A and luminal cell lines”; the “cell proliferation/viability, basal-B lines” value was “having no effect on basal B cells”. In data set [3] (setting [5]), the “cell proliferation/viability, basal-A and luminal (EpCAM+) lines” value was “decreased cell proliferation”; the “cell proliferation/viability, basal-B lines” value is listed as “did not inhibit basal-B cells”. In data set [2] (3 days), the “proportion of surviving EpCAM+ basal-A tumor cells” value is “greatly reduced the proportion of surviving EpCAM+ basal-A tumor cells” and the “survival of an EpCAM− basal-B cell line in co-culture” value is recorded as “had no effect on survival of an EpCAM− basal-B cell line”. Moreover, the “share of EpCAM− (BPE) cells in co-culture after treatment” value in data set [2] (HCC1937 + BPE, untreated 41% BPE) came to 83%. In addition, the “share of EpCAM+ (HCC1937) cells in co-culture after treatment” value in data set [2] (HCC1937 + BPE, untreated 59% HCC1937) was 17%. The “share of MB231 cells in co-culture after treatment” value in data set [2] (MB231 + BPE, untreated 33% MB231) is on record as 38%. Further, in data set [2] (MB231 + BPE, untreated 66% BPE), the “share of BPE cells in co-culture after treatment” value stood at 61%.

For the origin of these results see patent US11180762B2, “Methods and compositions for the treatment of cancer” (CHILDREN'S MEDICAL CENTER CORPORATION, priority 2014, dated 2021).
